In paper PMC3097136:

T1: COUP-TFI (Nr2f1) (Mus musculus, UniProt Q60632 1-422)
T1 sequence: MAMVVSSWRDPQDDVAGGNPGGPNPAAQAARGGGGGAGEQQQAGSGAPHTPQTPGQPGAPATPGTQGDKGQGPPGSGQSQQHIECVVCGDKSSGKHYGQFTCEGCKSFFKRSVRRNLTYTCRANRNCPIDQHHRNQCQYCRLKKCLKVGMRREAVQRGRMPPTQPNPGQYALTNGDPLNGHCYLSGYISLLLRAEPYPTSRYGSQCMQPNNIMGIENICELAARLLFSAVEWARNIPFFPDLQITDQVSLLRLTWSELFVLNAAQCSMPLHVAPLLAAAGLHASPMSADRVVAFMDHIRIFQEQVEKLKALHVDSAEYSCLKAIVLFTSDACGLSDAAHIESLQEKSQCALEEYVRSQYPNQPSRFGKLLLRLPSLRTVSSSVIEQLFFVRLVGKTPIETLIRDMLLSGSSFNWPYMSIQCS

T2: COUP-TFII (Nr2f2) (Mus musculus, UniProt P43135 1-414)
T2 sequence: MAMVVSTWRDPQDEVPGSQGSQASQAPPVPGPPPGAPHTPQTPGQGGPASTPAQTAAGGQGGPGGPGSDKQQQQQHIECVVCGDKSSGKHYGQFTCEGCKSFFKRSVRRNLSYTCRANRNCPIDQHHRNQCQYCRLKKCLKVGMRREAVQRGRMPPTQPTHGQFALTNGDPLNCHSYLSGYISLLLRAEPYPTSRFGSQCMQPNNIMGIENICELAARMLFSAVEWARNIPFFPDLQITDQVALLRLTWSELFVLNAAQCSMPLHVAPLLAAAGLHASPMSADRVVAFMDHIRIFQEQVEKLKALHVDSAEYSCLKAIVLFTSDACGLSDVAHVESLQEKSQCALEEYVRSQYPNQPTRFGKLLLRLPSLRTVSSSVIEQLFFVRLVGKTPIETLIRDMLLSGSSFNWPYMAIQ


Assays:
[1] = molecular target: tESR1 (estrogen receptor alpha DNA-binding domain) (Homo sapiens, UniProt P03372 185-250); experiment: EMSA
Chain of tESR1 (estrogen receptor alpha DNA-binding domain) (P03372 185-250): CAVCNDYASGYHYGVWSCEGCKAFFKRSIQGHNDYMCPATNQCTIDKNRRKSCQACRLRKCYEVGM

COUP-TFI (Nr2f1) [2] = molecular target: T1, COUP-TFI (Nr2f1); experiment: EMSA
COUP-TFI (Nr2f1) [3] = molecular target: T1, COUP-TFI (Nr2f1); experiment: competition
COUP-TFII (Nr2f2) = molecular target: T2, COUP-TFII (Nr2f2); experiment: EMSA
COUP-TFI (Nr2f1) [4] = molecular target: T1, COUP-TFI (Nr2f1); experiment: competition; remark: listed apart in the source

Row | Binder | binding result [1] | binding result (COUP-TFI (Nr2f1) [2]) | binding result (COUP-TFI (Nr2f1) [3]) | binding result (COUP-TFII (Nr2f2)) | binding result (COUP-TFI (Nr2f1) [4])
1 | probe A* (mutated NRBE) (dsDNA) DNA 1: ATCCAAGCTCGAATTGAAATCTCTTT DNA 2: AAAGAGATTTCAATTCGAGCTTGGAT | no binding | no binding | – | – | –
2 | cold probe A (dsDNA) DNA 1: ATCCAAAGGTCAATTGAAATCTCTTT DNA 2: AAAGAGATTTCAATTGACCTTTGGAT | – | – | binds | – | –
3 | probe A (nPE2 NRBE) (dsDNA) DNA 1: ATCCAAAGGTCAATTGAAATCTCTTT DNA 2: AAAGAGATTTCAATTGACCTTTGGAT | binds | binds | – | binds | –
4 | cold probe A* (dsDNA) DNA 1: ATCCAAGCTCGAATTGAAATCTCTTT DNA 2: AAAGAGATTTCAATTCGAGCTTGGAT | – | – | – | – | no binding
